Results as given in patent US20230265151A1, “GIP/GLP1 CO-AGONIST COMPOUNDS” (priority 2020, published 2023).
Residue numbers refer to the chain shown, from its start.

T1: human GIP receptor (human, UniProt P48546 22-466)
T1 sequence (looked up): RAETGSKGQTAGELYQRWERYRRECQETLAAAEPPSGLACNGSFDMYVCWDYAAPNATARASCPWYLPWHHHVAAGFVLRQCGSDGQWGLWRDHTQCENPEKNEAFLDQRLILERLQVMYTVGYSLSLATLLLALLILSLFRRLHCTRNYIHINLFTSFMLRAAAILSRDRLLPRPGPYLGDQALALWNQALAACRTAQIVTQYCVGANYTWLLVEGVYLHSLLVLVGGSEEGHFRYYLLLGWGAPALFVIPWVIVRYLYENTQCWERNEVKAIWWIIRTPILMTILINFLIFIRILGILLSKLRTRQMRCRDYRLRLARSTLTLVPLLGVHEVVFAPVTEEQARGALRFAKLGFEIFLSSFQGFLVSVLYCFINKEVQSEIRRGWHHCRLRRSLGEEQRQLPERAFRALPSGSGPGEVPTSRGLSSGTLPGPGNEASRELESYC

T2: human GIP receptor (human, UniProt P48546 22-466)
T2 sequence (looked up): T1 sequence (looked up)

B1: Example 100 (peptide)
peptide: YXEGTXTSDXGIXLDXKAQXEFIXXLIEGGKSSGAPPPS
modifications: Aib2, αMeF(2F)6, 4Pal10, αMeL13, Orn16, Aib20, D-Glu24, αMeY25, K17 and K31: K(AEEA2-(γ-Glu)-CO-(CH2)12-CO2H), C-terminal NH2
B2: Example 29 (peptide)
peptide: B1 peptide with X10K, G11S, K31P
modifications: Aib2, αMeF(2F)6, αMeL13, Orn16, Aib20, D-Glu24, αMeY25, K10 and K17: K(AEEA2-(γ-Glu)-CO-(CH2)14-CH3), C-terminal NH2
B3: Example 22 (peptide)
peptide: B1 peptide with G11S, X24K, K31P
modifications: Aib2, αMeF(2F)6, 4Pal10, αMeL13, Orn16, Aib20, αMeY25, K17 and K24: K(AEEA2-(γ-Glu)-CO-(CH2)14-CH3), C-terminal NH2
B4: Example 411 (peptide)
peptide: YXEGTXTSDXXIXLDXQAQXEFIKXLIKGGPSSGAPPPS
modifications: Y-Aib-EGT-αMeF(2F)-TSD-4Pal-Aib-I-αMeL-LD-Orn-QAQ-Aib-EFIK((2-[2-(2-Amino-ethoxy)-ethoxy]-acetyl)2-(γ-Glu)-CO-(CH2)12-CO2H)-αMeY-LIK((2-[2-(2-Amino-ethoxy)-ethoxy]-acetyl)2-(γ-Glu)-CO-(CH2)12-CO2H)GGPSSGAPPPS-NH2
B5: Example 28 (peptide)
peptide: B1 peptide with G11S, I12K, K31P
modifications: Aib2, αMeF(2F)6, 4Pal10, αMeL13, Orn16, Aib20, D-Glu24, αMeY25, K12 and K17: K(AEEA2-(γ-Glu)-CO-(CH2)12-CO2H), C-terminal NH2
B6: Example 33 (peptide)
peptide: B1 peptide with G11S
modifications: Aib2, αMeF(2F)6, 4Pal10, αMeL13, Orn16, Aib20, D-Glu24, αMeY25, K17 and K31: K(AEEA2-(εK)-CO-(CH2)12-CO2H), C-terminal NH2
B7: Example 102 (peptide)
peptide: B1 peptide with G11S, A18G
modifications: Aib2, αMeF(2F)6, 4Pal10, αMeL13, Orn16, Aib20, D-Glu24, αMeY25, K17 and K31: K(AEEA2-(γ-Glu)-CO-(CH2)12-CO2H), C-terminal NH2
B8: Example 23 (peptide)
peptide: B1 peptide with G11S, E28K, K31P
modifications: Aib2, αMeF(2F)6, 4Pal10, αMeL13, Orn16, Aib20, D-Glu24, αMeY25, K17 and K28: K(AEEA2-(γ-Glu)-CO-(CH2)14-CH3), C-terminal NH2
B9: Example 31 (peptide)
peptide: B1 peptide with G11S
modifications: Aib2, αMeF(2F)6, 4Pal10, αMeL13, Orn16, Aib20, D-Glu24, αMeY25, K17 and K31: K(AEEA3-(γ-Glu)-CO-(CH2)14-CH3), C-terminal NH2
B10: Example 32 (peptide)
peptide: B1 peptide with G11S, X25K, K31P
modifications: Aib2, αMeF(2F)6, 4Pal10, αMeL13, Orn16, Aib20, D-Glu24, K17 and K25: K(AEEA2-(γ-Glu)-CO-(CH2)14-CH3), C-terminal NH2
B11: Example 30 (peptide)
peptide: B1 peptide with G11S
modifications: Aib2, αMeF(2F)6, 4Pal10, αMeL13, Orn16, Aib20, D-Glu24, αMeY25, K17 and K31: K(AEEA3-(γ-Glu)-CO-(CH2)12-CO2H), C-terminal NH2
B12: Example 10 (peptide)
peptide: B1 peptide with G11S
modifications: Aib2, αMeF(2F)6, 4Pal10, αMeL13, Orn16, Aib20, D-Glu24, αMeY25, K17 and K31: K(AEEA2-(10-(4-carboxyphenoxy)decanoyl)), C-terminal NH2
B13: Example 460 (peptide)
peptide: B4 peptide
modifications: Y-Aib-EGT-αMeF(2F)-TSD-4Pal-Aib-I-αMeL-LD-Orn-QAQ-Aib-EFIK((2-[2-(2-Amino-ethoxy)-ethoxy]-acetyl)3-(γ-Glu)-CO-(CH2)12-CO2H)-αMeY-LIK((2-[2-(2-Amino-ethoxy)-ethoxy]-acetyl)3-(γ-Glu)-CO-(CH2)12-CO2H)GGPSSGAPPPS-NH2
B14: Example 6 (peptide)
peptide: B1 peptide with G11S
modifications: Aib2, αMeF(2F)6, 4Pal10, αMeL13, Orn16, Aib20, D-Glu24, αMeY25, K17 and K31: K(AEEA2-(γ-Glu)-CO-(CH2)10-CO2H), C-terminal NH2

Tests used:
Assay in all cases: cell-based or functional assay
human GLP-1 receptor [1] = biological target: human GLP-1 receptor (human, UniProt P43220 24-463)
human glucagon receptor = human glucagon receptor (human, UniProt P47871 26-477)
human GIP receptor [2] = biological target: T1, human GIP receptor
human GIP receptor [3] = biological target: T2, human GIP receptor; remark: listed apart in the source
human GLP-1 receptor [4] = biological target: human GLP-1 receptor (human, UniProt P43220 24-463); remark: listed apart in the source

Binder	EC50, cAMP (human GLP-1 receptor [1]) [nM]	Emax, cAMP (human GLP-1 receptor [1]) [%]	EC50, cAMP (human glucagon receptor) [nM]	EC50, cAMP (human GIP receptor [2]) [nM]	cAMP EC50 (1.0% HSA) (human GIP receptor [3]) [nM]	cAMP EC50 (1.0% HSA) (human GLP-1 receptor [4]) [nM]	Emax, cAMP (human GIP receptor [2]) [%]
B1	11.4	111	> 9950				
B2	0.00468	100	> 9950	0.00252			
B3	0.0153		> 9950	0.00656			
B4					1.09	11.4	
B5	2.65		> 9950	0.0554			95.4
B6	0.37		> 9950	0.00957			
B7	19.1		> 9950				
B8	0.00722		> 9950	0.00299			
B9			> 9950	0.00157			
B10	0.0063	119	> 9950	0.002			
B11	2.27		> 9950	0.0175			
B12			> 9950	0.0106			
B13					0.506	6.31	
B14	2.3		> 9950	0.0477			
